For experiment [1], the target named is T1, APDTRPAPG (synthetic MUC1 epitope peptide without N-terminal biotin or linker).
T1 chain: APDTRPAPG
Kind of experiment: crystal structure.

Experiment [2] has as its target T2, biotin-GGS-APDTRPAPG (N-terminally biotinylated synthetic MUC1 VNTR peptide).
T2 chain: Biotin-GGSAPDTRPAPG
Kind of experiment: SPR. Background: Surface plasmon resonance follows binding to a sensor surface in real time, without labels.

Usually Kd stands for a measure of binding affinity in units of concentration. The low end stands for a tighter complex, the high end for a looser complex.

Where no end group is shown, it is not given here. The star is where a group is joined. Biotin = O=C1N[C@H]2[C@H](CS[C@H]2CCCCC(=O)*)N1

B1: recombinant 139H2 Fab fragment (Fab, V domains shown)
VH: QVQLQQSGAELVKPGASVKLSCKASGYTFTNYYMYWVLQRPGQGLEWIGEINPSNGGTTFNEKFKNKATLTVDKSSSTAYMQLNSLTSEDSAVYYCTRSRYGNYVNYGMDYWGQGTSVTVSS
VL: DIVMSQSPSSLAVSVGEKVTMSCKSSQSLLYSNTQKNYLAWYQQKPGQSPKLLIYWASTRESGVPDRFTGSGSGTDFTLTISSVKAENLAVYYCQQYYRYPPTFGGGTKLELK
With B1, in experiment [1], the binding result was “binds”. The molecule further yielded a Kd in experiment [2] of 4.5 µM.
